Assay results from article PMC8012516, “Antimicrobial peptide DP7 with potential activity against SARS coronavirus infections” (Signal Transduction and Targeted Therapy, 2021).

Key:
[1] = biological target: T1, S-receptor-binding domain (RBD)-Fc of SARS-CoV-2 (SARS-CoV-2, UniProt P0DTC2); test: SPR; details: both partners purified
T1 construct: also called S-RBD-Fc of SARS-CoV-2; S-RBD-Fc

[2] = biological target: angiotensin-converting enzyme 2 (UniProt Q9BYF1 18-805); test: SPR; Biacore; who was immobilised and the conditions are not given; details: both partners purified
Chain of angiotensin-converting enzyme 2 (Q9BYF1 18-805): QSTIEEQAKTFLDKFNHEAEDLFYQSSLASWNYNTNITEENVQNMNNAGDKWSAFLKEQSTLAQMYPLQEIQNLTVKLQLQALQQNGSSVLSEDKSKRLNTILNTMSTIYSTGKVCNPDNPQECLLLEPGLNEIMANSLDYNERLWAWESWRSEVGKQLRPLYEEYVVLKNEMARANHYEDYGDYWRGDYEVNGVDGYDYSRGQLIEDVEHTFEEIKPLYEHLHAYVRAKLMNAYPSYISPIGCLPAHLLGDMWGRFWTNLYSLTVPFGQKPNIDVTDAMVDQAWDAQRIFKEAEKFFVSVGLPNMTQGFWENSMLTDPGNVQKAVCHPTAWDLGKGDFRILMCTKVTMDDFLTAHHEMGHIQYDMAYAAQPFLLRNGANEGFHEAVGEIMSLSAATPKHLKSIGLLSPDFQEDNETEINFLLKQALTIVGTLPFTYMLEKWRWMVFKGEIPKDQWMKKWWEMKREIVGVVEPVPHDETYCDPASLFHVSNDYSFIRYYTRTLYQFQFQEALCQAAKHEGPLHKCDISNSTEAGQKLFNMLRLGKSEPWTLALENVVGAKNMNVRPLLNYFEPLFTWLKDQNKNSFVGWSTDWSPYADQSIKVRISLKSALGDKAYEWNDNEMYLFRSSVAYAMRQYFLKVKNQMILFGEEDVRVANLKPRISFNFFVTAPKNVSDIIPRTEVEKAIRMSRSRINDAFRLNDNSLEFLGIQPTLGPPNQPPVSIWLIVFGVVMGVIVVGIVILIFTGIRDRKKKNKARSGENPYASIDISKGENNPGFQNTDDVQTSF

VQWRIRVAVIRK (also called antimicrobial peptide DP7) [antibacterial peptide DP7]
Kd [1]: 51.9 nM
Kd [2]: 227 nM
